# T1: biotin-PDGF-bb (human), P01127
# T1 chain: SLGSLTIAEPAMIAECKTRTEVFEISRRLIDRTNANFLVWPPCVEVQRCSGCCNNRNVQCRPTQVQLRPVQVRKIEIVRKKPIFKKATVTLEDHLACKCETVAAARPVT
# Target: biotin-VEGF-A (8-109) (human)
# Experiment: SPR; […]; Biacore S200, […] (PBS with 0.05% Tween 20, pH 7.4); […]
# Sequence of biotin-VEGF-A (8-109) (human) (P15692 whole entry): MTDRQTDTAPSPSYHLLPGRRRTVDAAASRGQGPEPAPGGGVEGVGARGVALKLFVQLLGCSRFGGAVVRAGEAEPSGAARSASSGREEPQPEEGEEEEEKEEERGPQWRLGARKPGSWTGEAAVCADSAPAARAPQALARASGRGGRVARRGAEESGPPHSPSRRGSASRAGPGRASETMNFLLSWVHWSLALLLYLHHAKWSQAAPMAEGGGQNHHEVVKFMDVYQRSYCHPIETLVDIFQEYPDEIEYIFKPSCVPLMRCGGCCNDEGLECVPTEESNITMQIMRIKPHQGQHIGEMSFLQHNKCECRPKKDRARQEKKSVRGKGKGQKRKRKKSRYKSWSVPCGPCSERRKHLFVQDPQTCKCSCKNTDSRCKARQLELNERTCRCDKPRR
row,Binder,Kd [µM]
1,GCAGKSCKKWSSVHCDAGCFCQIGQQVVYIPGCV (designed binder) [V-MCH-1],> 50
2,GCQTPWFPHQILCKQDSDCLAGCVCGPNGFCG (designed binder) [V-EET-2],> 30
3,GCMTPWFPFTINCKQDSDCLAGCVCGPNGFCG (designed binder) [V-EET-3],> 1.5

# Now from value to binder:
row,Kd [µM],Binder
1,> 3.6,VGECSQPWFINMCNMVDCCSQFGYCGKGPKYCG (designed binder) [V-AMP-1]
2,> 20,GCTTPWVPHHIMCKQDSDCLAGCVCGPNGFCG (designed binder) [V-EET-1]

# Target: T1, biotin-PDGF-bb (human), P01127
# Experiment: as above
row,Kd [µM],Binder
1,> 6.7,"GCFDDNPFIACKQDSDCLAGCVCWYDTWCG (designed binder, modifications not checked) [P-EET-6]"
2,> 20,"GCSHWLQEMFGFCKQDSDCLAGCVCEISETCG (designed binder, modifications not checked) [P-EET-2]"
